Tm value data for one molecule are collected here from patent publication US11110182B2, “Multifunctional RNA nanoparticles and methods for treating cancer and therapeutic resistant cancer” (University of Cincinnati, priority 2016, dated 2021).

A short description of this data set: Tm value by temperature gradient gel electrophoresis (TGGE) assay. The format is physicochemical. As for the experimental part: Cell culture. Human breast cancer luciferase-overexpressing BT474 and MDA-MB-231 cells were maintained in DMEM medium (Hyclone, Thermo Scientific) supplemented with 10% fetal bovine serum (FBS, Sigma) and 1% penicillin/streptomycin (Corning) at 37° C. in a humidified atmosphere with 5% CO2.^53 • Generation of pRNA nanoparticles. The two strands of pRNA were synthesized with the DNA templates, which were amplified with overlapping primers (Sigma) by PCR methods, using a T7 promoter-controlled in vitro RNA transcription system as previously described^33 (Table 1). […] The hydrodynamic diameter and Tm value of pRNA nanoparticles were determined using dynamic light scattering and TGGE assay, respectively, as previously described.^54 The AFM imaging of the pRNA nanoparticles was performed at the University of Nebraska Medical Center imaging facility as previously reported.^55 Briefly, the pRNA nanoparticles (5 μL) were deposited on APS modified mica ^56 for a total of 2 min of incubation time. […] After washing three times with PBS, the cellular uptake of pRNAs was determined using a BD LSRFortessa™ flow cytometer. • Real-time PCR. […] The expression of MED 1, TFF1, c-Myc, cyclinD1 and MMP-9 was analyzed using GAPDH as the internal reference. • Western blot analyses. […]

B1: pRNA-HER2apt-siMED1: 3-WJ pRNA nanoparticle bearing a HER2-targeting RNA aptamer and two different MED1 siRNAs; strands p1 SEQ ID NO: 3, p2 SEQ ID NO: 4 (nucleic acid)
chain 1: GGACAGUGAAAGUGAGUCAAAGGAUCAAUCAUGGCCAAAGAUGUUACUUUGAGAGCCUU
chain 2: GGCUCUCAAAGUAACAUCUAAGGCCAUGUGUAUGUGGGGGGAGGACGAUGCGGUCUGCUGUGCUUGAUAUGCCCCAGACGACUCGCCCCCCACAUACUUUGUUGAUCCAAUGACUCACUUUCACUGUCCUU
modifications: 2'-F modification; third strand may lack entry; pRNA-HER2apt-siMED1, p1; pRNA-HER2apt-siMED1, p2
In the case of B1, the Tm value amounted to 78±2 °C.
